In paper PMC11467860:
Like-named read-outs stand apart in the source and are kept apart here.

B1: snord37 (structured_RNA)
RNA: AUUCGUGAUGACUGAUCAUUUCUUCACUUUGACCAGAUGUCUACUGAAGAAAGCCUGCGUCUGAGG
B2: pre-miR-21 (structured_RNA)
RNA: UAGCUUAUCAGACUGAUGUUGACUGUUGAAUCUCAUGGCAACACCAGUCGAUGGGCUGUC
modifications: 5' phosphate

Legend:
Experiment in all cases: EMSA
[1] = biological target: T1, Dicer S839F (Homo sapiens, UniProt Q9UPY3 1-1922, S839F)
[2] = biological target: T1, Dicer S839F; remark: listed apart in the source
[3] = biological target: Dicer S839A (Homo sapiens, UniProt Q9UPY3 1-1922, S839A)
Sequence of Dicer S839A (Q9UPY3 whole entry S839A): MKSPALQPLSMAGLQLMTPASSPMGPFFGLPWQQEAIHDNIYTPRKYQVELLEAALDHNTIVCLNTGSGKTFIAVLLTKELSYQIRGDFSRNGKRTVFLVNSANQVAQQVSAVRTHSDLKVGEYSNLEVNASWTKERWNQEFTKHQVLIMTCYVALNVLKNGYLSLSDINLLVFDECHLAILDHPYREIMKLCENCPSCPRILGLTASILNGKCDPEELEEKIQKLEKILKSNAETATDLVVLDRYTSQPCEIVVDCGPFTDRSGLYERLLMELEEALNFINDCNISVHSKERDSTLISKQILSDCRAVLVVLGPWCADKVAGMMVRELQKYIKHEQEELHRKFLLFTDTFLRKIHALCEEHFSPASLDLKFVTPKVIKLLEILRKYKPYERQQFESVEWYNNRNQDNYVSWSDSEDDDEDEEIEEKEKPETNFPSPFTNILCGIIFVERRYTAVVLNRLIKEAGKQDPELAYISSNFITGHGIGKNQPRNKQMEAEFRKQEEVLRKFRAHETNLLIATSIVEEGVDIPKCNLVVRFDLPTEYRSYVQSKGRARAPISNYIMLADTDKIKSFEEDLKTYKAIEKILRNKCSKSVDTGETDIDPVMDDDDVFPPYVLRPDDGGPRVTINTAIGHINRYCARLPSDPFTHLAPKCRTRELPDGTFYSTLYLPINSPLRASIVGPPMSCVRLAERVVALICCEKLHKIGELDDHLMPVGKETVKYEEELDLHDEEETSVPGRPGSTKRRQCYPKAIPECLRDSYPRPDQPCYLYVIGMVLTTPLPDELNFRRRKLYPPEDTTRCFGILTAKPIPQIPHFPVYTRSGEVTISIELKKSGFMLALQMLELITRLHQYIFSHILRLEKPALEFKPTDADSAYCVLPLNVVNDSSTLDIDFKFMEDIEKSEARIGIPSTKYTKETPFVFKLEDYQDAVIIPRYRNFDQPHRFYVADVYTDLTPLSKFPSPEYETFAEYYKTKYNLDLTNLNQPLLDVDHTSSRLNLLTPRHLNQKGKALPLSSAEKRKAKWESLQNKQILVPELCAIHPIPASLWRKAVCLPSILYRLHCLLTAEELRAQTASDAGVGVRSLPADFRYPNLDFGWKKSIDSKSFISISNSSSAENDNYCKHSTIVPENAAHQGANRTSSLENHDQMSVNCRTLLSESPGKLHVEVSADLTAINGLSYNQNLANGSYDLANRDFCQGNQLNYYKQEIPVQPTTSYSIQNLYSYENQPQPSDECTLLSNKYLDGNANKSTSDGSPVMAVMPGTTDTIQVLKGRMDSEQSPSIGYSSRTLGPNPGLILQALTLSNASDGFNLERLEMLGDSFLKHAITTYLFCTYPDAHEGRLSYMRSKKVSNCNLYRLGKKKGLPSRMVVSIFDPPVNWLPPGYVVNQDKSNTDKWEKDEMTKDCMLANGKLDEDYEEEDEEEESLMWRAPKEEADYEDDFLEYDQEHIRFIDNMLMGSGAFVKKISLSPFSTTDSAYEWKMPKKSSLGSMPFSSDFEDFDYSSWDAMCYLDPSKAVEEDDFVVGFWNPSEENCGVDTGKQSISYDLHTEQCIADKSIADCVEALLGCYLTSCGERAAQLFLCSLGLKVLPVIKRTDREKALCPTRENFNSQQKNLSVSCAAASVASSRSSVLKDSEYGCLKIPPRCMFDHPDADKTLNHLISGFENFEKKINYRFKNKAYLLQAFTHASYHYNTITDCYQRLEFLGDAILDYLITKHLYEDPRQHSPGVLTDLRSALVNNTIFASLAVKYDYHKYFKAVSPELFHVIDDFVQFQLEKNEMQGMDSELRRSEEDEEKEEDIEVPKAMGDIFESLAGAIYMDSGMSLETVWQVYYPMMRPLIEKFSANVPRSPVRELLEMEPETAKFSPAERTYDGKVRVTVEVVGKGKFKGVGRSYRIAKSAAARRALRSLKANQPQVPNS

T1 sequence (Q9UPY3 whole entry S839F): as the sequence (Q9UPY3 whole entry S839A) above, with A839F counted along it

| Binder | binding result [1] | binding result [2] | binding result [3] |
| --- | --- | --- | --- |
| B1 | binds | – | – |
| B2 | – | no binding | binds |
